From article PMC10703047 come the findings set out here.

The target in the data set is DosR (DevR) (Mycobacterium tuberculosis H37Rv) (UniProt P9WMF9). The data set is described as follows: EMSA. In general terms: Mobility shift assays separate free from complexed probe on a gel.
Chain of DosR (DevR) (Mycobacterium tuberculosis H37Rv) (P9WMF9 whole entry): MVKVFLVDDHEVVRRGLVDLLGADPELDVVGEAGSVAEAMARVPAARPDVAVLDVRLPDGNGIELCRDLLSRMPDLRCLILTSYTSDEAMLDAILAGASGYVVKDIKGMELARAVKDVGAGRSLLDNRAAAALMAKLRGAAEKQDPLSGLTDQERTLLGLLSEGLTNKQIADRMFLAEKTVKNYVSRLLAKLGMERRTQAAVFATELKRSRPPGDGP

On to “AGCGGGATCGCATCACGCATTGGGTACCTCCGATGCTGGCGGATAAAGCCTTTCGTGCCGGCGGATGATCCGAGGTCGCTAGCTGGCGAGGGCCATGGGCGAGCA (double strand) [rv2625 promoter]”, for which the binding result is “no binding”.

“AGCGGTTCGGACTCCACCGCGTCTCCTGAGAGCTTCAGCGTTACATCGGTTGACGAGTTGAAGAATTTATCAGATAGTGCGGATGCGTGCGGGCCGCCCGCGGCCAATCGGCTACGGCGTACGCGAGTCAGC (double strand) [rv0081 promoter]”: the binding result is recorded as “no binding”.

As to “TAAGTGGACACGAACCGTAAGTTTAGACTTACGGATATTCTTCCGCAAGGGTGCGCGGGTGGTGTGACACGTGATCCGGGCATCCCGTCACCCATGGCGTTGGAGCCGAGTATCGGTTGGCGACGTTGGCCCGCCGGAAAGTCGACTGGTACAAGCATTTTCCGAGAACCCATGCGGCGCGTCGCGGCGATGACCGGCAGAGAGGCTCCCTAGTATTGCGGCGTGCTGGATCGCTATGGAACCGA (double strand) [rv1955 promoter]”, the binding entry is given as “binds”.

In the case of “TGGTATCTGACACTGCTACGTTCCTTTCCGCTTGTTGGTCCACGTCCTTGCACGAGCCAACCGGACCATGGTCCGATTTATTCCGATCGCGTTACAGTGCAAAGGTGAGCGGCGCCGAGC (double strand) [rv3054 promoter]”, the binding entry is “binds”.
